Measured values from publication PMC12631696, “Trp101-Mediated Cold Adaptation in Sphingomonas sp. Thioredoxin: Increased α4-Helix Rigidity with Preserved Overall Flexibility” (ACS Omega, 2025).

The substances below were run on O=C(O)c1cc(SSc2ccc([N+](=O)[O-])c(C(=O)O)c2)ccc1[N+](=O)[O-] (assay: purified protein). Conditions: Trx pre-reduced with 5 mM DTT, 0.4 μM, 50 mM MOPS pH 7.0, 1 mM EDTA, DTNB 10–150 μM, apparent optimal temperature (40 °C).
With “SpTrx (Sphingomonas sp. PAMC 26621; E43A/E47A)” the Km was 44.0 ± 0.1 µM and the kcat was 13.1 ± 0.2 s⁻¹. “SpTrx (Sphingomonas sp. PAMC 26621; E47A)” was tested, and the Km was 39.0 ± 0.1 µM and the kcat was 23 ± 0.1 s⁻¹. “SpTrx (Sphingomonas sp. PAMC 26621; W101A)” showed a Km of 59.9 ± 0.2 µM and a kcat of 0.6 ± 0.1 s⁻¹. With “SpTrx (Sphingomonas sp. PAMC 26621; W101F)” the Km was 50.7 ± 0.6 µM and the kcat was 14.6 ± 0.1 s⁻¹.

Same assay, conditions: Trx pre-reduced with 5 mM DTT, 0.4 μM, 50 mM MOPS pH 7.0, 1 mM EDTA, DTNB 10–150 μM, apparent optimal temperature (60 °C)
With SpTrx (Sphingomonas sp. PAMC 26621) the Km was 33.0 ± 0.1 µM and the kcat was 26.1 ± 0.1 s⁻¹. Work on “SpTrx (Sphingomonas sp. PAMC 26621; E43A)” yielded a Km of 38.3 ± 0.1 µM and a kcat of 23.4 ± 0.1 s⁻¹.
